The values below come from US12091776B2, “Protease activity profiling via programmable phage display of comprehensive proteome-scale peptide libraries” (THE JOHNS HOPKINS UNIVERSITY, priority 2019, dated 2024).

One assay has as its target T1, Thrombin (Homo sapiens, UniProt P00734).
T1 construct: Thrombin (a serine protease); purchased SignalChem
Nature of the assay: SEPARATE assay: human peptidome library digest with Thrombin. In kind it is biochemical. Particulars: human library, Thrombin.

The target in assay [1] is T2, Caspase-1 (Homo sapiens, UniProt P29466).
T2 construct: purchased BioVision
T2 sequence (P29466 120-297 limits assumed): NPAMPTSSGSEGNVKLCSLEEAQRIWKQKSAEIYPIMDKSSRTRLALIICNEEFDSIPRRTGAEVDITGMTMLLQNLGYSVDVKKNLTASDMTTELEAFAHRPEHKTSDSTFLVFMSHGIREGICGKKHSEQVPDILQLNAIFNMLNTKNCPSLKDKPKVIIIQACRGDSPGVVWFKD
T2 sequence (P29466 317-404 limits assumed): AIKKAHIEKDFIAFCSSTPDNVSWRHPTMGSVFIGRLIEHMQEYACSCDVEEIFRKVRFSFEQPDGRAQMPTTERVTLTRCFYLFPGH
Nature of the assay: SEPARATE assay: 56-amino acid mouse peptidome library digested with Caspase-1. In kind it is biochemical. Particulars: selected peptides, mouse library (56-aa tiles). As for the experimental part:
(§1) Streptavidin-coupled magnetic beads (Dynabeads M-280 Streptavidin, ThermoFisher Scientific) were washed (TBS, pH 7.4, 0.01% NP40) and resuspended in binding buffer (TBS, pH 7.4, 0.001% NP40) containing 2E9 plaque forming units per 10 μl of bead slurry. End-over-end mixing at room temperature was performed for one hour. Phage-coated beads were washed three times with wash buffer and transferred into two protein LoBind Eppendorf tubes blocked with TBS, pH 7.4 containing 1% BSA.
Digestion occurred overnight at room temperature with end-over-end rotation. […] To remove any residual biotinylated phage that may have been nonspecifically released, the 150 μl supernatant of the quenched digest reaction is then incubated with a fresh 10 μl of slurry volume M280 streptavidin beads (pre-washed three times with wash buffer) in a LoBind Eppendorf tube blocked with TBS, pH 7.4 containing 1% BSA at room temperature for one hour with end-over-end rotation.
10 μl slurry volume of protein G magnetic dynabeads were washed in buffer (TBS, pH 7.4, 0.01% NP40) and then resuspended in 50 μl TBS, pH 7.4, 0.01% NP40 containing 4 μg of M2 FLAG antibody for thirty minutes at room temperature with end-over-end rotation. The 150 μl quenched digest reaction is added to the 10 μl FLAG-coated Protein G beads and incubated for 60 minutes at room temperature with end-over-end rotation to capture phage particles released at the protease digest step. Beads are rinsed once with 100 μl wash buffer and stored at −80° C. until PCR amplification.
Library PCR preparation, high-throughput DNA sequencing, and peptide read count data generation was performed as described previously.^44 Briefly, library peptide inserts are amplified by resuspending 10 μl of FLAG-coated Protein G beads in PCR1 master mix containing the T7-Pep2_PCR1_F forward primer ([…]) (SEQ ID NO:3) and a T7-SEPARATE vector specific reverse primer ([…]) (SEQ ID NO:4), which includes an adapter sequence for sample-specific barcoding and Illumina P7 adapter incorporation during a subsequent PCR2 reaction. The PCR2 amplicons are pooled and sequenced using an Illumina NextSeq instrument in standard output mode to obtain single-end 50 nucleotide reads. Dual indexed sample demultiplexing and clonal read count determination were performed using exact sequence matching. […] To calculate the normalization factor, 100 peptides were randomly selected from the mock digest conditions with a read count ranging between 10 and 40. The median read count value for these 100 peptides is calculated for each sample. The random peptide selection and median calculation is performed 20 times and the average of the 20 median values is calculated for each sample. Finally, the normalization factor is calculated by dividing the average median value for each sample by that for one of the mock digest conditions. Read counts are then converted to normalized read counts by dividing each sample's read count values by the normalization factor. Fold enrichments are calculated for each peptide by dividing their normalized read counts in the digest condition by the normalized read counts in the mock digest condition. The fold enrichments can be visualized in an MA plot by transforming the normalized read count data into a log ratio (M, on the y-axis) and a mean average (A, on the x-axis) between the digest and mock digest conditions.
The performance of the SEPARATE assay is expected to depend on protease-substrate requirements as well as biophysical features of the peptide library. The present inventors have verified by PCR and Sanger sequencing that 90% of the immobilized human library lacks in-frame mutations. […] To explore this further, a 56-amino acid mouse peptidome library (unpublished) was used in which both IL-1β and Gasdermin-D cleavage peptides are better represented. […] Mouse IL-1β and Gasdermin-D are highly similar to the human versions and can serve as substrates for human Caspase-1. […]

The target in another assay is T3, endogenous Caspase-1 (Homo sapiens, UniProt P29466).
T3 construct: endogenous in cells; host or cells: PMA-differentiated THP-1 cells
T3 sequence (P29466 120-404): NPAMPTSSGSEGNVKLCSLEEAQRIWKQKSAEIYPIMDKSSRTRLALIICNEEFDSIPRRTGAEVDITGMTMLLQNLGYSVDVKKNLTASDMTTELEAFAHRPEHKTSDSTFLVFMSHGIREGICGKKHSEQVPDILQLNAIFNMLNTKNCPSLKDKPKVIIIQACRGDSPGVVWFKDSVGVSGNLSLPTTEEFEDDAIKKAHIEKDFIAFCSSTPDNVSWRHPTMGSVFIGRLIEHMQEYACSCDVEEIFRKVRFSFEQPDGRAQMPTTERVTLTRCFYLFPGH
Description: In vitro stimulation of the inflammasome in THP-1 cells (Western blot). In kind it is cell-based. Particulars: PMA differentiated THP-1 cells, LPS and Nigericin. As for the experimental part:
THP-1 cells were cultured in RPMI-1640 media with Glutamax (Gibco, ThermoFisher, Cat #61870127), supplemented with 10% FBS (Hyclone SH30071, GE Life Sciences), and 1× Antibiotic-Antimycotic (Gibco, ThermoFisher, Cat #15240062), referred to as complete RPMI. To differentiate THP-1 cells into macrophages, 1×10^6 THP-1 cells were added per well of a 6-well plate in complete RPMI medium containing 50 ng/ml Phorbol 12-myristate 13-acetate (PMA, diluted in RPMI medium from a 1 mg/ml PMA stock in DMSO, Millipore Sigma, Cat. No. P1585). After 48 hours when the cells become adherent, the medium with PMA was removed, cells washed in 1×PBS once, and fresh complete RPMI was added. Cells were allowed to rest for an additional 24 hours before inflammasome activation with LPS and Nigericin.
A 6-well plate of PMA differentiated THP-1 cells were treated with 0, 1 or 0.1 μg/ml LPS (Millipore Sigma, Cat. No. LPS25) for 3.5 hours. After 3.5 hours, cells were treated with 2.5 μM Nigericin for an additional 30 minutes to activate the inflammasome. Cells were washed in 1×PBS and lysed in 1× mammalian cell extraction buffer (BioVision, Cat. No. K269) containing 2 μM Dithiothreitol (DTT). Nuclei were spun down by centrifugation (10,000 rpm, 5 minutes, 4° C.) and the cleared supernatant was used to perform Western blots. […]

In assay [2] the target is T2, Caspase-1. Description: HUWE1 cleavage assay using recombinant Caspase-1 in THP-1 lysate (Western blot). In kind it is biochemical. Particulars: recombinant Caspase-1 added to unstimulated THP-1 cell lysates; time-dependent. As to the method:
Recombinant Caspase-1 (rCaspase-1) was diluted to 0.1 U/μl in 1× mammalian cell extraction buffer containing 2 μM Dithiothreitol (DTT). This buffer preserves enzymatic activity of proteases. Unstimulated, PMA differentiated THP-1 cells were also lysed in 1× mammalian cell extraction buffer with 200 μl of buffer to lyse one well of a 6-well plate (˜1×10^6 cells). Protease digests were set up with 50 μl of lysate (˜250,000 cells).
30 μl of protein lysates were mixed with 10 μl of 4× NuPage LDS sample loading buffer (Thermo Fisher, Cat. No. NP0007, final concentration to 1×). 4-12% NuPage Bis-Tris gels (Thermo Fisher, Cat. No. NP0321) were loaded with 35 μl of each sample along with high molecular weight standards (HiMark protein ladder, Thermo Fisher, Cat. No. LC5699) and resolved in 1× NuPAGE™ MES SDS Running Buffer (Thermo Fisher, Cat. No. NP0002) at 150V for 50-60 minutes. After suitable resolution of proteins, the gels were transferred to a PVDF membrane by the ‘wet transfer’ method using 1× NuPage transfer buffer (Thermo Fisher, Cat. No. NP00061) overnight at 4° C., 50 mA constant current. After transfer is complete, the membranes were washed in 1× tris buffered saline containing 0.01% Tween-20 (TBS-T), blocked for 30 minutes with 5% milk in TBS-T and probed with primary antibodies and HRP conjugated secondary antibodies with TBS-T washing in between. […]
Background: In western blotting, separated proteins are transferred to a membrane and probed.

The target in assay [3] is T2, Caspase-1. Nature of the assay: SEPARATE assay: human peptidome library digest with Caspase-1. In kind it is biochemical. Particulars: unstimulated THP-1 cell lysate supplemented with 0.1 units of recombinant Caspase-1. As to the method:
as §1
Digestion occurred overnight at room temperature with end-over-end rotation. […]
Library PCR preparation, high-throughput DNA sequencing, and peptide read count data generation was performed as described previously.^44 Briefly, library peptide inserts are amplified by resuspending 10 μl of FLAG-coated Protein G beads in PCR1 master mix containing the T7-Pep2_PCR1_F forward primer ([…]) (SEQ ID NO:3) and a T7-SEPARATE vector specific reverse primer ([…]) (SEQ ID NO:4), which includes an adapter sequence for sample-specific barcoding and Illumina P7 adapter incorporation during a subsequent PCR2 reaction. The PCR2 amplicons are pooled and sequenced using an Illumina NextSeq instrument in standard output mode to obtain single-end 50 nucleotide reads. Dual indexed sample demultiplexing and clonal read count determination were performed using exact sequence matching. […]

Description for Thrombin: The PCR2 amplicons are pooled and sequenced using an Illumina NextSeq instrument in standard output mode to obtain single-end 50 nucleotide reads. Dual indexed sample demultiplexing and clonal read count determination were performed using exact sequence matching. […] To calculate the normalization factor, 100 peptides were randomly selected from the mock digest conditions with a read count ranging between 10 and 40. The median read count value for these 100 peptides is calculated for each sample. The random peptide selection and median calculation is performed 20 times and the average of the 20 median values is calculated for each sample. Finally, the normalization factor is calculated by dividing the average median value for each sample by that for one of the mock digest conditions. […]

Regarding Fibrinogen, on Thrombin, the “scoring in the SEPARATE assay” value is reported as “did not score”.
Turning to “GSDMD 259-315: 56-amino acid mouse peptidome library peptide of Gasdermin-D (NVLAALCSIGKQLSLLSDGIDEEELIEAADFQGLYAEVKACSSELESLEMELRQQIL; UniProt Q9D8T2 259-315, looked up, fragment)”, the Caspase1 fold change in the assay with Caspase-1 [1] is reported as 6.78 fold.
In the assay with Caspase-1 [1], “GSDMD 222-278: 56-amino acid mouse peptidome library peptide of Gasdermin-D (LLIGSKWDILLVSDEKQRTFEPSSGDRKAVGQRHHGLNVLAALCSIGKQLSLLSDGI; UniProt Q9D8T2 222-278, looked up, fragment)” gave a Caspase1 fold change of 4.23 fold.
Same read-out and setting: to “IL1B 0-56: 56-amino acid mouse peptidome library peptide of IL-1β (MATVPELNCEMPPFDSDENDLFFEVDGPQKMKGCFQTFDLGCPDESIQLQISQQHI; UniProt P10749 1-56, looked up, fragment)” belongs 8.10 fold; to “IL1B 74-130: 56-amino acid mouse peptidome library peptide of IL-1β (WQLPVSFPWTFQDEDMSTFFSFIFEEEPILCDSWDDDDNLLVCDVPIRQLHYRLRDE; UniProt P10749 74-130, looked up, fragment)”, 13.23 fold; to “HUWE1 2291-2347: 56-amino acid mouse peptidome library peptide of HUWE1 (QDPGEPGEAEVQEEDHDVTQTEVADGDIMDGEAETDSVVIAGQPEVLSSQEMQVENE; UniProt Q7TMY8 2291-2347, looked up, fragment)”, 6.13 fold.
Still for that read-out and setting: the result for “HUWE1 2328-2384: 56-amino acid mouse peptidome library peptide of HUWE1 (VVIAGQPEVLSSQEMQVENELEDLIDELLERDGGSGNSTIIVSRSGEDESQEDVLMD; UniProt Q7TMY8 2328-2384, looked up, fragment)” reads 23.12 fold.
Consider “HECT, UBA and WWE Domain Containing E3 Ubiquitin Protein Ligase 1 [HUWE1]”, for which the “cleavage by endogenous Caspase-1 upon inflammasome activation (Western blot)” value with endogenous Caspase-1 was “cleavage”. Further, the “cleavage of endogenous HUWE1 (Western blot)” value with Caspase-1 [2] is on record as “robust cleavage”. The “enrichment in SEPARATE on a complex biological mixture” value with Caspase-1 [3] is listed as “among the most significantly enriched targets”.
In the case of “IL1B 75-131: 56-amino acid mouse peptidome library peptide of IL-1β (QLPVSFPWTFQDEDMSTFFSFIFEEEPILCDSWDDDDNLLVCDVPIRQLHYRLRDEQ; UniProt P10749 75-131, looked up, fragment)”, in the assay with Caspase-1 [1], the Caspase1 fold change amounted to 8.80 fold.
